B1: HDV Ribozyme (parent)
chain: GGCCGGCAUGGUCCCAGCCUCCUCGCUGGCGCCGGCUGGGCAACAUUCCGAGGGGACCGUCCCCUCGGUAAUGGCGAAUGGGACCCA

Variants of: B1
Test: self-cleavage, relative activity (ratio to wild type); higher = more cleavage; co-transcriptional

| Variant | self-cleavage |
| --- | --- |
| G39C U79G | 0.196 |
| C14A G80U | 0.273 |
| U20A C32A | 0.0489 |
| G39C C61A | 0.192 |
| C36G A43G | 0.0519 |
| C62U C63G | 0.654 |
| C48U A51G | 0.618 |
| G6C G67A | 0.35 |
| U72A U79C | 0.248 |
| A70G U72C | 0.54 |
| G35A U69C | 0.591 |
| C24G C32G | 0.0504 |
| C62G G68C | 0.196 |
| C3U C48G | 0.641 |
| G17A C33A | 0.0875 |
| U69A A83G | 0.712 |
| G11C A42G | 0.161 |
| U23C C64G | 0.76 |
| C36U A45C | 0.0426 |
| C64G A77G | 0.434 |
| C22G G25U | 0.102 |
| G28A G50C | 0.0978 |
| G1U G53A | 0.32 |
| C4A G40U | 0.199 |

| Variant | self-cleavage |
| --- | --- |
| C62A A83U | 0.494 |
| C33A A51G | 0.289 |
| C14A U79A | 0.369 |
| U9C G25A | 0.277 |
| G10U C15G | 0.0773 |
| G1A G6C | 0.151 |
| C7U C14A | 0.516 |
| C13G A16C | 0.0554 |
| G10A A16U | 0.929 |
| G10C C22G | 0 |
| C36A C58U | 0.222 |
| G74C A87C | 0.212 |
| A8U C61G | 0.623 |
| C18A C44U | 0.219 |
| U20A G80C | 0.0992 |
| C58U A70C | 0.831 |
| C44A A51C | 0.779 |
| G29C C61G | 0.032 |
| C41A A71G | 0.91 |
| C41A U46C | 0.415 |
| U9C A42G | 0.886 |
| G5U G82C | 0 |
| C14U G38C | 0.158 |
| C4G C24A | 0.102 |

| Variant | self-cleavage |
| --- | --- |
| C32U G81U | 0.185 |
| C57G C86U | 0.815 |
| C7G A43C | 0.111 |
| C7A C57U | 0.702 |
| C22G | 0.0832 |
| C26G G28C | 0.0504 |
| U9C A43C | 0.378 |
| A70C A83G | 0.543 |
| C13A A56U | 0.312 |
| C4G U37A | 0.0462 |
| G59C C85A | 0.937 |
| U20C U69C | 0.208 |
| A16C C19G | 0.0594 |
| G40U A56C | 0.639 |
| U46G C85U | 0.831 |
| C41U U72A | 0.656 |
| G25C A77U | 0 |
| G10C G80A | 0.166 |
| G52C C75G | 0.104 |
| G52U A77G | 0.647 |
| A71U A83G | 0.677 |
| G67U U69G | 1.03 |
| G2C C19A | 0.106 |
| G2C C19G | 0.102 |

| Variant | self-cleavage |
| --- | --- |
| G38C G40A | 0.0978 |
| C32G C66G | 0.0583 |
| U9C U65G | 1.37 |
| G68C G76U | 1.23 |
| U12A C85U | 0.481 |
| U20C G34A | 0.0504 |
| C18G C41A | 0.196 |
| C32A G76A | 0.214 |
| U37G C86A | 0.185 |
| A16G G80C | 0.249 |
| U9G G50C | 1.01 |
| G68A A70C | 0.707 |
| G10U C36G | 0.0615 |
| G2U G67C | 0.0678 |
| C21A C48U | 0.0639 |
| U20C A43G | 0.0978 |
| G54U G73U | 0.364 |
| C36U U69A | 0.627 |
| G1U U69A | 0.332 |
| G17C C30U | 0.655 |
| U9C C21A | 0.0639 |
| G73A A87U | 0.803 |
| U23A A78U | 0.256 |
| C75U A87C | 0.161 |

| Variant | self-cleavage |
| --- | --- |
| G59C U72C | 0.917 |
| C13A G50A | 0.295 |
| C4A C24A | 0.0475 |
| G10U G31C | 0.158 |
| C14U C61A | 1.14 |
| C33G C85U | 0.122 |
| C44A G50A | 0.671 |
| G6C G59A | 0.492 |
| A43U G67C | 0.354 |
| C64A G74U | 0.327 |
| G10A U37A | 0.0944 |
| G39A C44U | 0.185 |
| C66G C75G | 0.383 |
| G10U A43C | 0.115 |
| U23A G29U | 0 |
| C18A G80C | 0 |
| G17U G59U | 0.43 |
| C22A C48A | 0.201 |
| G11A G55U | 0.328 |
| A8G C36G | 0.104 |
| G5A G76U | 0.148 |
| C36U U65A | 0.665 |
| C57G C84A | 0.933 |
| G31C A87C | 0.531 |

| Variant | self-cleavage |
| --- | --- |
| C15U C30U | 0.554 |
| A56C C57U | 1.08 |
| U20C G35A | 0.101 |
| C44A G54C | 0.618 |
| C21A | 0.0856 |
| C41U A51G | 0.914 |
| U60G C66U | 1.08 |
| C48G G76A | 1.12 |
| G80U G81C | 0.199 |
| C30A G73C | 0.119 |
| A16C C30U | 0.449 |
| A8C C24U | 0.396 |
| G54A C86U | 0.992 |
| G17U A42U | 0.089 |
| A16C C33G | 0.227 |
| C22G A71G | 0.0573 |
| G2U C48U | 0.0563 |
| C4G G28U | 0 |
| U65G G82C | 0.133 |
| A16G A78C | 0.308 |
| C7U C22A | 0.261 |
| G59A G82A | 0.466 |
| G59A G82C | 0.208 |
| G5A U46C | 0.185 |

| Variant | self-cleavage |
| --- | --- |
| C36A A71G | 0.0405 |
| A16U C62G | 0.575 |
| A16C G34C | 0.104 |
| C14G G54A | 0.639 |
| A45G G54U | 1.17 |
| U47C G73A | 0.464 |
| C18G G80U | 0.0621 |
| U9A G52A | 0.99 |
| C36G A51C | 0.0665 |
| A70U A83C | 0.458 |
| G35C C49U | 0.203 |
| A16G C18U | 0.554 |
| U37C C62A | 1.05 |
| A16U G31U | 0.225 |
| C18A A51G | 0.0554 |
| G5U C24A | 0.158 |
| G39U C84U | 0.492 |
| G52A C61U | 0.879 |
| A51G A71C | 0.458 |
| C61A U65A | 0.774 |
| C32U C41U | 0.629 |
| A83G C86A | 0.941 |
| C4A A56C | 0.287 |
